Assay results reported in article doi:10.1101/2020.01.22.915298 (bioRxiv, 2020).

B1: Heparin-Binding EGF-like Growth Factor, recombinant (receptor, UniProt Q99075 63-148, looked up)
chain: DLQEADLDLLRVTLSSKPQALATPNKEEHGKRKKKGKGLGKKRDPCLRKYKDFCIHGECKYVKELRAPSCICHPGYHGERCHGLSL

Key:
[1] = target: Heparin-Binding EGF-like Growth Factor, recombinant (UniProt Q99075); test: SPR
[2] = target: diphtheria toxin receptor-binding fragment (lysosomal targeting moiety) (Corynebacterium diphtheriae, UniProt P00588 418-567); test: SPR
Sequence of diphtheria toxin receptor-binding fragment (lysosomal targeting moiety) (P00588 418-567): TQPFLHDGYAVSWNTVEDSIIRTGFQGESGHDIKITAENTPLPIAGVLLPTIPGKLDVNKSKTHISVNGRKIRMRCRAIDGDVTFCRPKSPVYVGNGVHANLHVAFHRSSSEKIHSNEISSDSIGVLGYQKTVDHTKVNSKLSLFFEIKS

Row | Molecule | Kd [1] [nM] | Kd [2] [nM]
1 | LTM-TPP1 (TPP1 with an N-terminal LTM fusion) | 19.1 | 
2 | B1 |  | 13.3
